# Assay results: a protein production outcome set (Wang et al. 2014)
# Assay: label from the status in PepcDB records
row,Sequence,protein production
1,MSRDGGDVIETAVKSLGKGFDLTADFRLKYCKDGDGSAGDDRLVVLDQTQNRELHIPGFGVFQNVSADINCDKGERTRFRSDILDFNKMSEYFNQRSSVTGKIPSGNFNATFGFQSGSWATDAANVKSLGLDASVVTLFNLHIHNPNRLRLTDRVRNAVPSSWDPQLLARFIERYGTHVITGVSVGGQDVVVVRQDKSSDLDNDLLRHHLYDLGDQLFTGSCLLSTRRLNKAYHHSHSQPKFPEAFNVFDDKQTVAFNNFSINSQNGITVICAKRGGDGRAKSHSEWLITVPDKPDAINFNFIPITSLLKDVPGSGLLSHAMSLYLRYKPPLMDLQYFLDFSGPRAWAPVHNDLPFGAAPNMASAYPALHINFMGPKLYVNTTPVTSEKNPVTGMRFFLEGKKCNRLAIHLQHLDNTRTTVGEKITDEHIWRGSDQITDNDRYFEPLNGKKFSHVCTVPVKYDPNWIKTTSNHKSQNDVAFIVTGAQLEVKKHGSKSVLHLRLRYTKVSDHYVVQNSWVHGPIGTSQKSGIFSSMSMPLTSGSVHHNMIQKDKNEVVLDSGVFPGGPPVPANNKIVKFVDLSQLCRGPQHSPGHWLVTGVRLYLDKGKLCLHVKFALLHRQRLLVSS,failed
2,MSRFMARIMVNGLNEPGTLAKVAQTVAGLDVNIRLLNTVRVAADFTEMMLEVEVWDLRQLNQLLAQMKELDCIATVRRLYELEHHHHHH,not failed
3,MSRGDKMLKFEIKARDGAGRIGKLEVNGKKIETPAIMPVVNPKQMVVEPKELEKMGFEIIITNSYIIYKDEELRRKALELGIHRMLDYNGIIEVDSGSFQLMKYGSIEVSNREIIEFQHRIGVDIGTFLDIPTPPDAPREQAVKELEITLSRAREAEEIKEIPMNATIQGSTYTDLRRYAARRLSSMNFEIHPIGGVVPLLESYRFRDVVDIVISSKMALRPDRPVHLFGAGHPIVFALAVAMGVDLFDSASYALYAKDDRYMTPEGTKRLDELDYFPCSCPVCSKYTPQELREMPKEERTRLLALHNLWVIKEEIKRVKQAIKEGELWRLVDERARSHPKLYSAYKRLLEHYTFLEEFEPITKKSALFKISNESLRWPVVRRAKERAKSINERFGELVEHPIFGRVSRYLSLTYPFAQSEAEDDFKIEKPTKEDAIKYVMAIAEYQFGEGASRAFDDAKVELSKTGMPRQVKVNGKRLATVRADDGLLTLGIEGAKRLHRVLPYPRMRVVVNKEAEPFARKGKDVFAKFVIFADPGIRPYDEVLVVNENDELLATGQALLSGREMIVFQYGRAVKVRKGVE,not failed
4,MSRGHCILAHGFESGPDALKVTALAEVAERLGWTHERPDFTDLDARRDLGQLGDVRGRLQRLLEIARAATEKGPVVLAGSSLGSYIAAQVSLQVPTRALFLMVPPTKMGPLPALDAAAVPISIVHAWHDELIPAADVIAWAQARSARLLLVDDGHRLGAHVQAASRAFAELLQSL,not failed
5,MSRIASHTQGLFADLREWIDLRVDLAILEMEERLDAFKNDLALGLTVAVFAFFAAFFSLTTVALGVGWLLGHPFWGFLAVSVALILIIVTLRVTKPALMPPSNLFESLRGERAASDEGPSSRPASAAVDEADGAEAQASAPDVKA,failed
6,MSRILITGAAGMVGRALLEELDEHDVFATDLVPPKATGAVTWLPMDVTTDDPDRIVGEVRPQVVIHLASIVTPGVARAVAHRVDVGGTRAVLDACLAHGVRRLVVTSSGAAYGYHADNPMPLRESDPLRGNPEFAYADHKRQVEEILAEARQSAPQLEQVVLRVGTVLGAGTENQITALFRKPRLLAVRGSESPFVFIWTRDLARILARAAGEGPAGIYNVAGDGAMGVSDLARALGKPVLRLPALTLKAALALARPLGLSRYGPEQVRFLQYRPVLANDALKQVFGYVPELASAEVFDLWRREAGL,failed
7,MSRILVLAVVALALLNPLFLVVHSLPTGVSAHDGPIYTNAVLGYANITSLQAYNSSFNVPYGASLQLNVVLEATSTNGNTYYFWLQNVAQFVTNESLMCFTDNVWNYTTATAEISNVTGNGGIGFTYNILFGHPTFYGYSTEPMPYRFPLALYLLINESLSSNGVIVNFIYVVLQNGSLVPPHPVTYDSVFIPVPDPQSAYIIVNDSLTPSAVVLNFTLFYQEALGNLMDTELVWGGYENGEFTTFTQMSSYLGLFYLSGNSFVPFSTVYTYGNDTAESTGDLYVSIASNGDAYVTVGTPDYGLLTDSFHPYIPGFTFVNVTSKVPFLVNGTYTNSFVGYVVHPVTITFYRNYTVNSSSYAVLDYPSQSLTITPSNTFKNVIITPQYTYYYKVIVNSSRPLLLNISGKETLTNGTLWLPQGTSVSLVNNTYYVSSGERFVVNNTYPNLPLTVENPTTITVTLEKQFKLTINSPIPLLLSINGKSRLFNGTTWVLQGSAVELVNNTYYVSSGERYVVSSISPSTPIEVSGPMNISVELVKEYKVEIVSSQPVMATIKGETEPVNGTAWLPQGSVIHLTANLPVYLKGYFVGTYNASPGEQVTINGPIYEKLVVQLNYTFLEELVIPIVTAVVIVVAITRRR,failed
8,MSRQPLSREDTAILVPALNEALRIREVVTDALTYCSHVIVIDDGSDDGTAECIAGMPVTLIRHPQRMGKGAALRSGFAQAQRLGMRAVMTMDGDGQHKAADFPRLLAAANRHPGCVIIGARMRKRATQPTIRRIGNDFGDWGIAWGCGFRLIDSQSGQRLYPASVFTLPNVPGEGFVFEAQLLISAARQAGARVVAVPIETRYAGTSPGTFRKSHFRLVRDLWNITSHVVKQVWAYGHVWREYRRVRANPVIVDDPDGEFATVPAVTKSNHSSLEHHHHHH,failed
9,MSRRTVSLTVLALVLALLILVAPDVLLVIFAGVLFGVFLSAGGGLVQRVTGLQRGAGIALFIVLVLLALTGAFLAFAPAMFEQADALARQLPPAFEDLRDRISAYSWGPTLLSRLAPSRLLSSDGGFASTAVSATFGALGNVVIILFIGLYTAVDPGLYRRGLRALLAPPLRPRGDEVLAIADGTLRGWLGGQIISMTVVGVLTWLGLWLIGIPLAFILGLIAALLTFIPNIGPVLSAVPALLLALPEGAEQVGLVLAVFLTVQTFESYLVTPLIQKERVALPPALIISAQLLMGVLFGLMGLLLATPLAALALALVREVYVHDYLEEGPAKAQGPDRAD,failed
10,MSRSPRYTNFILIAVMLGALLPAAGCLEEHEVASAGLSSATMSVNLTYYTEQLPPYNYMENSMLQGLSVDLLEEITEKMGKKVTREEVHLVPWTEGYQAALNGNNTVLFSMARSPEREQFFKWAGPIYSDRYVLFAKRDRGITIKNPEDLKGYRIGVIADDIATRQLLDIGVNQSQIAPESNVSAIIAGLENGDIDLWACPEDAGRYFTEELTGSYYSYTVVYQLETQDLYYAFSKDVPDSVVQSFQQALDAVKREKDVEGISTYDRILGKYIPSIGLARLNYLTEEWAPFNYQEDGNVTGISVEILEAVFKNIGVNRSRADVRIVPLAEGFQIAQNNTSTVLFSIVRTPEREPFYKWAGPFTRANFVLYAPVSSNITISSPKDLNQYRIGAIRASIENDLLASQGVNESQIINGQTPEDLFRMLEEGQIDLWATGDLAGRHQMLRTAEDPNAYEIVYTLSENDFYYIFSKDVPDTLVSAFQQALDTVRDQRDEQGVSDYERIIYRNLGVGCAPQTFTDDTVMELVNTTVKAIEKNASDTFRRINAGEAPYRDSKDPGLYAFVYDTNLTIVAHADNIQLVGTNFRGKTDVTGKPFRDEILEGALKNGTGSVDYVYMHPVQTNLYYKTAYYRLTRGSDGNSYIVCSGNYKLCQNQSEAMPANNSTASPEELAAFVEKAFEYAHENGQEVALREFNNQAGQFVDGKFYIFAYDTNGTTLALPFQPEIIGTKRWNVTDTNGTLFIQDLVDTAQSGGGFVRYFYADPADNFTVKQKLSYVMMVNQSWIIGSGIYDPQKDSAIVRAGTDPQVRENLKSFVGEAIEYANTNGKDTAIEEFNDRNGAFVRGNLYIYAFDYNGTTLALPYQAQLIGTNLSELQDPYGVNYTKVEIFMAQQGGGFLFYHYYNPARNMTLEPKMSYVQKVDDTWWLGAGTYTEDLNRITKRD,failed
11,MSRTNINFNNKRTELANKIWDIFIANGYENTTLAFIINKLGISKGALYHYFSSKEECADAAIENRVAFFSNEVLKESEEGLNSIERLKKILLAGIKITSVNEQVKEINSPSNKIFHQKLMVAIIKYFAPIYADIISQGNEEGVFKVKYPLETAEIILTLSHFYLDEDLFKWKKEDMSLKLTAFKETLIKILDADEDTFDFIK,not failed
12,MSRTTASTCMGERRQSSLKRLAIFRPVQRLPARELLPLDGDRWLVAAQRREPERGPNGLGNGQRRPVQFRREVPGEHDVCIHIHRAVGFEDVIHDEPHPVGGLPFDDIRCGHIYALLGQSIGYVRVVSDADLDDGIDRRQSVDKRAGGVGHVVQFMRCGRICVPMHVDIVPVGEVSAQVKREASDGLRSVYDCEVSMHEPQSIPAGAYDGDRDQYRAEEFIDLARRVGSGGKNIAITPKDLFYRRRNYVFGLAYLGGSGSVISTYRLQTSSDGGFSNRSAGEIFSQRVRKEVVHEVGHTLGLEHCDNKRCVMNFSPTVRQVDVKEVSLCGSCQRNVL,failed
13,MSRVHNRALSAAELQSFGDELDAIRARVLSQVGAADARYIRRIVAAVRWTGVAGRALLFLGAFVHSVLIPAWIAGVLLLALSKILENMELGHNVMHGQYDWMGDPQLNGNTYEWDIVATGDNWRKTHNFKHHTYTNVRGMDDDIGYGLLRIFPEQRWRPFYLLQPFIAVVFALLFEWGVAIQDLRLGRWFAGKMKAAELRASFLPVGRKMGRQMLKDYIVFPLLAGPFFLTVLLGNLAANVLRSIWTFVIIFCGHFTADAEVFPKESIRNESRGHWYLRQLRGSSNLTGGKLMNVLSGNLSHQIEHHFYPDLPANRYAQIAVEVKQVCARYGQHYNTGSLPRQFGQVMWRIVRHAFPSRPKPVRQGSGALQSA,failed
14,MSSAKSARYNRFSGGPANLPASDSSGTRMETTFGPTFSTVTTITKAADGTSTYKQHRRTPSSSSTLAYSPRDEEDGMPPINTPRRSDSAISVRSLHSESSMSLRSTFSLPEEEEEPEPLVFAEQPSVKLCCQLCCSVFKDPVITTCGHTFCRRCALKSEKCPVDNAKLTVVVNNIAVAEQIGELFIHCRHGCRAAGTGKPGVFEVDPRGCPFTIKLSARKDHESSCDYRPVRCPNNPSCPPLLKMNLEAHLKECEHIKCPHSKYGCTFIGNQDTYETHLETCRFEGLKEFLQQTDDRFHEMHVALAQKDQEIAFLRSMLGKLSEKIDQLEKSLELKFDVLDENQSKLSEDLMEFRRDASMLNDELSHINARLNMGILGSYDPQQIFKCKGTFVGHQGPVWCLCVYSMGDLLFSGSSDKTIKVWDTCTTYKCQKTLEGHDGIVLALCIQGCKLYSGSADCTIIVWDIQNLQKVNTIRAHDNPVCTLVSSHNMLFSGSLKAIKVWDIVGTELKLKKELTGLNHWVRALVAAQSYLYSGSYQTIKIWDIRTLDCIHVLQTSGGSVYSIAVTNHHIVCGTYENLIHVWDIESKEQVRTLTGHVGTVYALAVISTPDQTKVFSASYDRSLRVWSMDNMICTQTLLRHQGSVTALAVSRGRLFSGAVDSTVKVWTC,failed
15,MSSAQFDHVTVIKKSNVYFGGLCISHTVQFEDGTKKTLGVILPTEQPLTFETHVPERMEIISGECRVKIADSTESELFRAGQSFYVPGNSLFKIETDEVLDYVCHLEG,not failed
16,MSSATASIKLSNGVEMPVIGLGTWQSSPAEVITAVKTAVKAGYRLIDTASVYQNEEAIGTAIKELLEEGVVKREELFITTKAWTHELAPGKLEGGLRESLKKLQLEYVDLYLAHMPAAFNDDMSEHIASPVEDVWRQFDAVYKAGLAKAVGVSNWNNDQISRALALGLTPVHNSQVELHLYFPQHDHVDFCKKHNISVTSYATLGSPGRVNFTLPTGQKLDWAPAPSDLQDQNVLALAEKTHKTPAQVLLRYALDRGCAILPKSIQENRIKENFEVFDFSLTEEDIAKLEESKNSQRLFLQDFMTGHPEDAFAAERK,not failed
17,MSSDHRDQYYWRAKRDQFRSRAAYKLEFLIERYGIIKDGQAVLEIGSSPGGWTQVLVDHGCRVVAVDIQPMDEIPGVIFLKLNILREDAAERIREEMARSLVQRFDVVLSDAMAKTSGIRSSDHAASVMIGNAVMKIAMDTLRRGGVAVVKQFQGDMTGDFIKNWGHYFRDHRITKPPASRKESSEVYIIFYGFSGKETDNSVQG,failed
